The text below walks through data of US20260274955A1 (JANUX THERAPEUTICS, published 2026).

For assay [1], the target named is T1, Anti-CD28 Fab (SEQ ID NOs: 202, 203).
T1 construct: biotinylated and captured on neutravidin coated plates in the phage ELISA
The experiment in a line: phage ELISA on captured Fab, wells pre-incubated with CD28 antigen (competitor: CD28). (In general: ELISA stands for enzyme-linked immunosorbent assay.)
Protocol: (§1) Clonal phage were harvested as crude supernatants and screened via standard ELISAs. […] Prior to the addition of clonal phage, wells were incubated with blocking buffer and CD28 antigen or blocking buffer alone. Without washing or aspirating, clonal phage supernatants were then added to the wells and incubated for a short time. Wells were then washed followed by detection of bound phage using a horse radish conjugated anti-M13 antibody.

The target is the same in assay [2]. Briefly: phage ELISA on captured biotinylated Fab.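 Also: wells preblocked with or without CD28 antigen, then clonal phage supernatant added briefly, washed, and bound phage read out by ELISA using HRP-linked anti-M13 antibody.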
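For Anti-CD28 Fab signal in the presence of CD28 in this document: bound clonal phage detected with an HRP-linked anti-M13 antibody, compared against wells that received blocking buffer alone without CD28.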
Protocol: as §1

T1 sequence (VH, as listed by the source, chain 1 of 2): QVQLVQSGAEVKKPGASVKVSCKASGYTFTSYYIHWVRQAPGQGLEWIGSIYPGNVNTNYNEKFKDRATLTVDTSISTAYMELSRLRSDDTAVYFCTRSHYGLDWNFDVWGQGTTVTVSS
T1 sequence (VL, as listed by the source, chain 2 of 2): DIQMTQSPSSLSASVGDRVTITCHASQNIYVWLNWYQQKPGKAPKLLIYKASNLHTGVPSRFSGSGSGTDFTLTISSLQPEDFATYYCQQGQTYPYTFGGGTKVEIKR

B1: Phage-205 (peptide)
peptide: YCQGHLPQYIAKCL
For the molecule B1, the “Anti-CD28 Fab signal in the presence of CD28” value (from here on “Anti-CD28 Fab signal … of CD28”) in assay [1] amounted to 0.08. Also, in assay [2], the “Anti-CD28 Fab signal” value stood at 2.09.

B2: Phage-220 (peptide)
peptide: YCEGHAPQYIQKCL
Consider B2, for which the “Anti-CD28 Fab signal … of CD28” value in assay [1] is 0.07. Besides, the “Anti-CD28 Fab signal” value in assay [2] worked out at 2.07.

B3: Phage-243 (peptide)
peptide: YCLGHAPQYIQKCL
Take B3: in assay [1], the “Anti-CD28 Fab signal … of CD28” value worked out at 0.14. Also, in assay [2], the “Anti-CD28 Fab signal” value worked out at 2.04.

B4: Phage-195 (peptide)
peptide: YCDGHLPVYMAKCL
In the case of B4, in assay [1], the “Anti-CD28 Fab signal … of CD28” value is 0.09. Besides, the “Anti-CD28 Fab signal” value in assay [2] amounted to 2.11.

B5: Phage-222 (peptide)
peptide: YCDGHLPAYMAKCL
For the molecule B5, the “Anti-CD28 Fab signal … of CD28” value in assay [1] was 0.12. In addition, the “Anti-CD28 Fab signal” value in assay [2] was 2.06.

B6: Phage-225 (peptide)
peptide: YCEGHADIYMQKCL
Turning to B6, in assay [1], the “Anti-CD28 Fab signal … of CD28” value is 0.07. For the same molecule, the “Anti-CD28 Fab signal” value in assay [2] came out at 2.06.

B7: Phage-228 (peptide)
peptide: YCEGHLPIYMDKCL
In the case of B7, in assay [1], the “Anti-CD28 Fab signal … of CD28” value is 0.08. In assay [2], the “Anti-CD28 Fab signal” value worked out at 2.06.

B8: Phage-221 (peptide)
peptide: YCDGHELRYMAKCL
Consider B8, for which the “Anti-CD28 Fab signal … of CD28” value in assay [1] was determined as 0.07. Moreover, the “Anti-CD28 Fab signal” value in assay [2] is 2.07.

B9: Phage-189 (peptide)
peptide: YCDGHIPIYMSKCL
On to B9, for which the “Anti-CD28 Fab signal … of CD28” value in assay [1] worked out at 0.08. For the same molecule, the “Anti-CD28 Fab signal” value in assay [2] turned out to be 2.13.

B10: Phage-260 (peptide)
peptide: YCDGHSPIYMSKCL
Turning to B10, the “Anti-CD28 Fab signal … of CD28” value in assay [1] is 0.09. Besides, the “Anti-CD28 Fab signal” value in assay [2] is 2.

B11: Phage-214 (peptide)
peptide: YCEGHAPEHMAKCL
In the case of B11, in assay [1], the “Anti-CD28 Fab signal … of CD28” value was determined as 0.1. Further, the “Anti-CD28 Fab signal” value in assay [2] stood at 2.08.

B12: Phage-200 (peptide)
peptide: YCSGHAPIYMAKCL
Consider B12, for which the “Anti-CD28 Fab signal … of CD28” value in assay [1] was determined as 0.07. Moreover, in assay [2], the “Anti-CD28 Fab signal” value worked out at 2.1.

B13: Phage-287 (peptide)
peptide: YCSGHAPEYMAKCL
For B13, the “Anti-CD28 Fab signal … of CD28” value in assay [1] worked out at 0.06. Also, in assay [2], the “Anti-CD28 Fab signal” value is 1.94.

B14: Phage-218 (peptide)
peptide: YCDGHAQEFMSKCL
Turning to B14, in assay [1], the “Anti-CD28 Fab signal … of CD28” value was found to be 0.12. In addition, the “Anti-CD28 Fab signal” value in assay [2] stood at 2.07.

B15: Phage-259 (peptide)
peptide: YCEGHLSQYMQKCL
On to B15, for which the “Anti-CD28 Fab signal … of CD28” value in assay [1] came to 0.09. The “Anti-CD28 Fab signal” value in assay [2] came out at 2.

B16: Phage-215 (peptide)
peptide: YCDGHAEQYMEKCL
As for B16, the “Anti-CD28 Fab signal … of CD28” value in assay [1] turned out to be 0.07. The “Anti-CD28 Fab signal” value in assay [2] was 2.08.

B17: Phage-231 (peptide)
peptide: YCQGHMPEYMDKCL
As for B17, the “Anti-CD28 Fab signal … of CD28” value in assay [1] came out at 0.07. Moreover, in assay [2], the “Anti-CD28 Fab signal” value was 2.05.

B18: Phage-202 (peptide)
peptide: YCEGHSPQYMQKCL
Turning to B18, the “Anti-CD28 Fab signal … of CD28” value in assay [1] stood at 0.06. Moreover, the “Anti-CD28 Fab signal” value in assay [2] came out at 2.1.

B19: Phage-241 (peptide)
peptide: YCEGHSPQYMSKCL
Regarding B19, the “Anti-CD28 Fab signal … of CD28” value in assay [1] was 0.07. The “Anti-CD28 Fab signal” value in assay [2] was found to be 2.04.

B20: Phage-207 (peptide)
peptide: YCAGHLPEHIGKCL
B20: the “Anti-CD28 Fab signal … of CD28” value in assay [1] was 0.07. Besides, the “Anti-CD28 Fab signal” value in assay [2] amounted to 2.09.

B21: Phage-232 (peptide)
peptide: YCDGHAPEYVMKCL
On to B21, for which the “Anti-CD28 Fab signal … of CD28” value in assay [1] came out at 0.1. For the same molecule, the “Anti-CD28 Fab signal” value in assay [2] was determined as 2.05.

B22: Phage-296 (peptide)
peptide: YCAGHMPEYIDKCL
As for B22, the “Anti-CD28 Fab signal … of CD28” value in assay [1] stood at 0.06. In assay [2], the “Anti-CD28 Fab signal” value stood at 1.92.

B23: Phage-217 (peptide)
peptide: YCEGHSMQHMAKCL
For B23, the “Anti-CD28 Fab signal … of CD28” value in assay [1] was determined as 0.08. Besides, the “Anti-CD28 Fab signal” value in assay [2] was found to be 2.07.

B24: Phage-233 (peptide)
peptide: YCDGHVGEYMQKCL
In the case of B24, the “Anti-CD28 Fab signal … of CD28” value in assay [1] stood at 0.08. Also, the “Anti-CD28 Fab signal” value in assay [2] is 2.05.

B25: Phage-236 (peptide)
peptide: YCDGHLPEYQMKCL
Take B25: the “Anti-CD28 Fab signal … of CD28” value in assay [1] came out at 0.08. Besides, the “Anti-CD28 Fab signal” value in assay [2] was 2.05.

B26: Phage-206 (peptide)
peptide: YCAGHLPQYMEKCM
On to B26, for which the “Anti-CD28 Fab signal … of CD28” value in assay [1] was 0.08. The “Anti-CD28 Fab signal” value in assay [2] was determined as 2.09.

B27: Phage-230 (peptide)
peptide: YCAGHIEEYMWKCL
Consider B27, for which, in assay [1], the “Anti-CD28 Fab signal … of CD28” value came out at 0.06. Besides, the “Anti-CD28 Fab signal” value in assay [2] turned out to be 2.05.

B28: Phage-211 (peptide)
peptide: YCAGHLEIYMQKCL
Consider B28, for which the “Anti-CD28 Fab signal … of CD28” value in assay [1] came out at 0.08. Also, the “Anti-CD28 Fab signal” value in assay [2] was 2.09.

B29: Phage-216 (peptide)
peptide: YCEGHSPEYMSHCF
For the molecule B29, the “Anti-CD28 Fab signal … of CD28” value in assay [1] was found to be 0.09. Further, in assay [2], the “Anti-CD28 Fab signal” value came out at 2.08.

B30: Phage-229 (peptide)
peptide: YCDGHAIEYMQKCL
Take B30: in assay [1], the “Anti-CD28 Fab signal … of CD28” value was 0.07. The “Anti-CD28 Fab signal” value in assay [2] turned out to be 2.05.

B31: Phage-224 (peptide)
peptide: YCEGHAPEYMMKCI
On to B31, for which, in assay [1], the “Anti-CD28 Fab signal … of CD28” value worked out at 0.06. Also, the “Anti-CD28 Fab signal” value in assay [2] was 2.06.

B32: Phage-191 (peptide)
peptide: YCAGHLPLYMEKCL
For the molecule B32, the “Anti-CD28 Fab signal … of CD28” value in assay [1] was determined as 0.06. For the same molecule, the “Anti-CD28 Fab signal” value in assay [2] came to 2.12.

B33: Phage-193 (peptide)
peptide: YCEGHLPQYIPKCL
For B33, in assay [1], the “Anti-CD28 Fab signal … of CD28” value is 0.07. Also, the “Anti-CD28 Fab signal” value in assay [2] was found to be 2.12.

B34: Phage-208 (peptide)
peptide: YCEGHTAEYLQKCL
As for B34, the “Anti-CD28 Fab signal … of CD28” value in assay [1] was 0.1. Besides, the “Anti-CD28 Fab signal” value in assay [2] was 2.09.

B35: Phage-242 (peptide)
peptide: YCDGHFREYMQKCL
With B35, in assay [1], the “Anti-CD28 Fab signal … of CD28” value turned out to be 0.06. Also, the “Anti-CD28 Fab signal” value in assay [2] worked out at 2.04.

B36: Phage-223 (peptide)
peptide: YCEGHSDEYMLKCL
Consider B36, for which the “Anti-CD28 Fab signal … of CD28” value in assay [1] was 0.07. Moreover, in assay [2], the “Anti-CD28 Fab signal” value is 2.06.

B37: Phage-203 (peptide)
peptide: YCDGHVPQYMAKCL
On to B37, for which, in assay [1], the “Anti-CD28 Fab signal … of CD28” value came to 0.07. Besides, the “Anti-CD28 Fab signal” value in assay [2] stood at 2.1.

B38: Phage-239 (peptide)
peptide: YCEGHAIQYMSKCL
As for B38, the “Anti-CD28 Fab signal … of CD28” value in assay [1] was 0.06. For the same molecule, the “Anti-CD28 Fab signal” value in assay [2] stood at 2.04.

B39: Phage-201 (peptide)
peptide: YCAGHTQEYMSKCL
With B39, the “Anti-CD28 Fab signal … of CD28” value in assay [1] was 0.05. In assay [2], the “Anti-CD28 Fab signal” value turned out to be 2.1.

B40: Phage-209 (peptide)
peptide: YCAGHSPEYMGKCM
On to B40, for which the “Anti-CD28 Fab signal … of CD28” value in assay [1] was 0.06. In addition, the “Anti-CD28 Fab signal” value in assay [2] turned out to be 2.09.

B41: Phage-198 (peptide)
peptide: YCDGHLEEYMAKCL
Consider B41, for which the “Anti-CD28 Fab signal … of CD28” value in assay [1] is 0.09. Besides, the “Anti-CD28 Fab signal” value in assay [2] amounted to 2.11.

B42: Phage-240 (peptide)
peptide: YCEGHAPQHMDKCL
As for B42, the “Anti-CD28 Fab signal … of CD28” value in assay [1] is 0.08. Besides, the “Anti-CD28 Fab signal” value in assay [2] was found to be 2.04.

B43: Phage-234 (peptide)
peptide: YCDGHSAQYMHKCL
As to B43, the “Anti-CD28 Fab signal … of CD28” value in assay [1] amounted to 0.06. For the same molecule, the “Anti-CD28 Fab signal” value in assay [2] was 2.05.

B44: Phage-261 (peptide)
peptide: YCDGHSDQYMWKCL
With B44, in assay [1], the “Anti-CD28 Fab signal … of CD28” value was 0.11. In addition, in assay [2], the “Anti-CD28 Fab signal” value was found to be 2.

B45: Phage-235 (peptide)
peptide: YCEGHAPEYMYKCL
For B45, in assay [1], the “Anti-CD28 Fab signal … of CD28” value came out at 0.07. For the same molecule, the “Anti-CD28 Fab signal” value in assay [2] turned out to be 2.05.

B46: Phage-196 (peptide)
peptide: YCMGHSEEYMQKCL
As for B46, the “Anti-CD28 Fab signal … of CD28” value in assay [1] stood at 0.07. For the same molecule, the “Anti-CD28 Fab signal” value in assay [2] worked out at 2.11.

B47: Phage-238 (peptide)
peptide: YCDGHLIEYMEKCL
As to B47, the “Anti-CD28 Fab signal … of CD28” value in assay [1] stood at 0.06. In addition, the “Anti-CD28 Fab signal” value in assay [2] is 2.04.

B48: Phage-298 (peptide)
peptide: YCDGHLNEYMEKCL
For B48, the “Anti-CD28 Fab signal … of CD28” value in assay [1] was 0.06. Besides, the “Anti-CD28 Fab signal” value in assay [2] stood at 1.91.
